Assay results from the supplement of paper PMC7877785.
± gives the uncertainty stated by the source.

Experiment: self-splicing fitness, log relative to wild type (ln ratio); higher = more splicing; Tetrahymena group I intron in knt gene, E. coli kanamycin selection, DiMSum; sequences stand for … in CUCUCU…GGAGGGAAAAGUUAUCAGGCAUGCACCUGGUAGCUAGUCUUUAAACCAAUAGAUUGCAUCGGUUUAAAAGGCAAGACCGUCAAAUUGCGGGAAAGGGGUCAACAGCCGUUCAGUACCAAGUCUCAGGGGAAACUUUGAGAUGGCCUUGCAAAGGGUAUGGUAAUAAGCUGACGGACAUGGUCCUAACCACGCAGCCAAGUCCUAAGUCAACAGAUCUUCUGUUGAUAUGGAUGCAGUUCACAGACUAAAUGUCGGUCGGGGAAGAUGUAUUCUUCUCAUAAGAUAUAGUCGGACCUCUCCUUAAUGGGAGCUAGCGGAUGAAGUGAUGCAACACUGGAGCCGCUGGGAACUAAUUUGUAUGCGAAAGUAUAUUGAUUAGUUUUGGAGUACUCGUGGUCG
Summary of the method: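 DiMSum derived fitness as the error-weighted combination of fold changes across replicates, kanamycin versus no kanamycin, normalised to wild type. E. coli BL21(DE3) held the library, which randomised all eight P1ex-region intron nucleotides within the knt kanamycin-resistance gene on pET-22b(+). Six replicate transformations grew overnight at 37°C or 30°C on LB agar with or without 25 μg/mL kanamycin, also containing 100 μg/mL carbenicillin, 50 μM IPTG and 0.2% rhamnose, and pooled colonies were amplicon-sequenced on an Illumina HiSeq 2500.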

Sequence | self-splicing fitness (ln) (30 °C) | self-splicing fitness (ln) (37 °C)
GCUUAGCAAUAUUACGACCC | -0.525 ± 0.22 | -0.569 ± 0.38
AGAAAGCAAUAUUACGGGAG | -2.56 ± 0.097 | -1.97 ± 0.12
AAAGAGCAAUAUUACGCGCU | -2.96 ± 0.4 | 
CACGAGCAAUAUUACGACAA |  | -2.44 ± 0.28
UGGGAGCAAUAUUACGCGAA | -1.59 ± 0.23 | -1.67 ± 0.34
GCUCAGCAAUAUUACGAGUA | -0.337 ± 0.098 | -0.433 ± 0.1
CUCUAGCAAUAUUACGUCGC |  | -3.28 ± 0.47
UUCUAGCAAUAUUACGUGCA | -1.23 ± 0.13 | -1.59 ± 0.16
AGUGAGCAAUAUUACGCGCA | -2.29 ± 0.2 | -2.38 ± 0.2
CACUAGCAAUAUUACGGAAC |  | -1.93 ± 0.22
UAGAAGCAAUAUUACGAGUC | -2.76 ± 0.39 | -2.02 ± 0.33
AACUAGCAAUAUUACGACUG | -0.606 ± 0.1 | -0.989 ± 0.13
CUAUAGCAAUAUUACGGGGC |  | -1.7 ± 0.33
UUUCAGCAAUAUUACGAGAG | -1.8 ± 0.069 | -1.91 ± 0.088
UGGGAGCAAUAUUACGGCUA | -0.66 ± 0.21 | -0.59 ± 0.15
AAAGAGCAAUAUUACGGCGU | -1.87 ± 0.098 | 0.269 ± 0.094
AAUGAGCAAUAUUACGAUAG | -3.68 ± 0.27 | -2.04 ± 0.34
GUGCAGCAAUAUUACGUAUA | -1.42 ± 0.073 | 0.0392 ± 0.069
GGGCAGCAAUAUUACGGUAG | -3.2 ± 0.19 | -1.34 ± 0.19
UAUAAGCAAUAUUACGACUG | 0.143 ± 0.076 | 0.22 ± 0.098
CACAAGCAAUAUUACGUCGU | -3.56 ± 0.13 | -1.96 ± 0.11
GAAAAGCAAUAUUACGAAAC | -2.88 ± 0.14 | -0.0376 ± 0.11
AGAAAGCAAUAUUACGUUAA | -2.23 ± 0.14 | -1.44 ± 0.17
UUAAAGCAAUAUUACGAAUU | -1.97 ± 0.11 | -2.46 ± 0.21
UUUAAGCAAUAUUACGCGGA | -1.6 ± 0.098 | -0.0901 ± 0.084
GGAAAGCAAUAUUACGCCGG |  | -2.24 ± 0.37

Sequence | self-splicing fitness (ln) (30 °C) | self-splicing fitness (ln) (37 °C)
CCAUAGCAAUAUUACGGGGU | -3.73 ± 0.18 | -2.46 ± 0.17
CACAAGCAAUAUUACGCGCA | -0.607 ± 0.095 | -1.28 ± 0.1
UGCUAGCAAUAUUACGCUCG | -1.2 ± 0.14 | -0.909 ± 0.17
AGUAAGCAAUAUUACGGUCG | -1.95 ± 0.083 | -0.559 ± 0.087
GUCAAGCAAUAUUACGCGCG | -2 ± 0.13 | -1.32 ± 0.15
AAGGAGCAAUAUUACGAUUU | -0.545 ± 0.12 | 0.0878 ± 0.15
UUCCAGCAAUAUUACGAACG | -2.22 ± 0.16 | -0.164 ± 0.15
GGAGAGCAAUAUUACGCCUA | -2.28 ± 0.32 | -2.48 ± 0.34
ACGCAGCAAUAUUACGGGCA | -1.08 ± 0.081 | -0.293 ± 0.094
CCAUAGCAAUAUUACGAACG | -0.593 ± 0.09 | -0.0842 ± 0.11
GUGUAGCAAUAUUACGUAUA | -2.85 ± 0.49 | -0.725 ± 0.15
UCCGAGCAAUAUUACGCUCA | -3.08 ± 0.32 | -2.3 ± 0.47
GACUAGCAAUAUUACGAGGG | -3.34 ± 0.18 | -2.65 ± 0.2
ACUUAGCAAUAUUACGAUGG | -2.19 ± 0.099 | -1.16 ± 0.12
UAGUAGCAAUAUUACGGUGC | -3.13 ± 0.17 | -2.39 ± 0.19
AAGCAGCAAUAUUACGCUUU | -4.53 ± 0.2 | -2.87 ± 0.22
GCACAGCAAUAUUACGACGA | -0.897 ± 0.13 | 0.243 ± 0.15
CCGAAGCAAUAUUACGUAGC | -3 ± 0.33 | 
GAGGAGCAAUAUUACGAGAC | -2.67 ± 0.22 | 
AGGUAGCAAUAUUACGGGUA | -2.347 ± 0.022 | -1.31 ± 0.034
UUCGAGCAAUAUUACGUCGA |  | -1.49 ± 0.19
AACAAGCAAUAUUACGUUAC | -3.54 ± 0.11 | -3.01 ± 0.18
GUAAAGCAAUAUUACGCGUC | -1.05 ± 0.12 | -1.3 ± 0.14
CGCUAGCAAUAUUACGGUAC | -3.35 ± 0.23 | -1.95 ± 0.22
AUACAGCAAUAUUACGUUUC | -3.38 ± 0.19 | -1.49 ± 0.2
GGACAGCAAUAUUACGUCGA | 0.00434 ± 0.082 | 0.755 ± 0.12

Sequence | self-splicing fitness (ln) (30 °C) | self-splicing fitness (ln) (37 °C)
ACACAGCAAUAUUACGGUGC | -3.91 ± 0.16 | -2.61 ± 0.14
UAAGAGCAAUAUUACGGCUA | -1.03 ± 0.1 | -0.141 ± 0.11
UAUAAGCAAUAUUACGGCCG | 0.336 ± 0.23 | 0.0314 ± 0.26
GACCAGCAAUAUUACGGAGU | -0.646 ± 0.077 | 0.000468 ± 0.092
AGGUAGCAAUAUUACGGUGG | -3.787 ± 0.027 | -2.8 ± 0.04
GUAUAGCAAUAUUACGGUGU | -3.29 ± 0.15 | -1.38 ± 0.11
AUUGAGCAAUAUUACGAGGC | -3.05 ± 0.36 | -2.78 ± 0.4
CGUUAGCAAUAUUACGAGAU | -2.01 ± 0.23 | -2.33 ± 0.35
UUUAAGCAAUAUUACGUUGU | -3.69 ± 0.25 | -2.2 ± 0.26
CUGGAGCAAUAUUACGCUGG |  | -2.98 ± 0.35
CAAUAGCAAUAUUACGUUUC | -4.35 ± 0.2 | -3.13 ± 0.19
CCGAAGCAAUAUUACGACGU | -1.03 ± 0.08 | 0.0423 ± 0.092
GACAAGCAAUAUUACGGAAA | -2.13 ± 0.2 | -2 ± 0.23
GACUAGCAAUAUUACGCGGC | -3.16 ± 0.38 | 
AUUCAGCAAUAUUACGCCGU | -0.349 ± 0.15 | 0.177 ± 0.14
CACAAGCAAUAUUACGCGUC | -2.54 ± 0.13 | -2.15 ± 0.18
GACCAGCAAUAUUACGAGGU | -2.95 ± 0.12 | -3.04 ± 0.2
GCUUAGCAAUAUUACGGACG | -1.15 ± 0.13 | 0.122 ± 0.18
CCACAGCAAUAUUACGCUAA | -3.8 ± 0.22 | -1.62 ± 0.15
AAGCAGCAAUAUUACGCUGA | -3.07 ± 0.11 | -1.98 ± 0.11
UACCAGCAAUAUUACGGCGC | -1.32 ± 0.073 | -0.174 ± 0.097
CCUCAGCAAUAUUACGCGUA | -2.71 ± 0.21 | -3.37 ± 0.28
AUAGAGCAAUAUUACGCGAC | -2.44 ± 0.18 | -1.3 ± 0.17
AUUUAGCAAUAUUACGUCAU | -1.76 ± 0.1 | -0.485 ± 0.1
GCAUAGCAAUAUUACGUAAG | -1.63 ± 0.083 | -0.386 ± 0.12
GCCUAGCAAUAUUACGAGUG | -2.5 ± 0.11 | -0.934 ± 0.099
